From patent US20250115671A1 (BEIGENE, published 2025)
Like-named read-outs stand apart in the source and are kept apart here.

T1: human CCR8 N-terminal domain-mouse Fc tag fusion protein (human (CCR8 part), mouse IgG2a Fc)
T1 construct: also called huCCR8-N-mIgG2a; human CCR8 N-terminal protein
T1 chain: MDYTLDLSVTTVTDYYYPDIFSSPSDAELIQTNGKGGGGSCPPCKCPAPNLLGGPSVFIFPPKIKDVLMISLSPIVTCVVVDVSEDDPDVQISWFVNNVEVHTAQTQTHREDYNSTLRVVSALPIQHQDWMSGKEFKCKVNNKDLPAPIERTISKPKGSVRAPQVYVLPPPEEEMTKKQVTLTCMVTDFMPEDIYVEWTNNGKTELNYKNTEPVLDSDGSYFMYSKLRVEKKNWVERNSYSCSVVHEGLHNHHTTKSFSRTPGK


How the values were obtained:
human CCR8 [1] = biological target: T2, human CCR8 (human, UniProt P51685 1-355); assay: flow cytometry, Jurkat-human CCR8 cells
T2 sequence (P51685 whole entry): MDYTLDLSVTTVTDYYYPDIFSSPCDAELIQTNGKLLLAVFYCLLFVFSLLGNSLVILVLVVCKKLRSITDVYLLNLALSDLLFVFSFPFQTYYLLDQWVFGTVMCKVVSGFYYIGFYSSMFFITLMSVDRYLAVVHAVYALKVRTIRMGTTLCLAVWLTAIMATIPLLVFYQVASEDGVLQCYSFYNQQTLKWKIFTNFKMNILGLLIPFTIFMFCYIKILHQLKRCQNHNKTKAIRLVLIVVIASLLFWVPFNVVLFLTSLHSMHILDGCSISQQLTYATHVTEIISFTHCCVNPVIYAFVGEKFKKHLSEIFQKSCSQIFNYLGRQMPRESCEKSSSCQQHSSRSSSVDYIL
Experimental: To evaluate the binding activity of anti-CCR8 antibodies to bind CCR8 expressed on living cells, Jurkat cells were engineered to over-express human CCR8. Jurkat-human CCR8 cells were seeded in 96-well plate and incubated with a series of dilutions of anti-CCR8 antibodies. Goat anti-human IgG was used as secondary antibody to detect antibody binding to the cell surface. EC50 values for dose-dependent binding to human CCR8 were determined by fitting the dose-response data to the four-parameter logistic model with GraphPad Prism. As shown in Table 4 and FIG. 3 the CCR8 antibodies had high binding affinity to human CCR8.

human CCR8 [2] = biological target: T2, human CCR8; assay: flow cytometry, stimulated human primary Treg cells (high CCR8)
Experimental: Treg binding of the humanized antibodies was measured on Treg cells from human PBMC. Briefly, CD25+ cells were isolated from human PBMC. The cells were stimulated with IL-2, TGFβ and anti-CD3/CD28 beads for high CCR8-expression level Treg cells. Next, Treg cells were seeded in 96-well plate and incubated with a series of dilutions of anti-CCR8 antibodies. Goat anti-human IgG was used as secondary antibody to detect antibody binding to the cell surface. EC50 values for dose-dependent binding to human CCR8 were determined by fitting the dose-response data to the four-parameter logistic model with GraphPad Prism. As shown in FIG. 6A and Table 12 the hu305-5W-3a had the highest binding affinity to CCR8 on Treg cells of the humanized antibodies. As noted in Table 12 and FIG. 6A below, the hu305-5W-3a antibody also had the lowest IC50 regarding reducing ligand-receptor interaction.

[3] = biological target: human CCR8 N-terminal domain-mouse Fc tag fusion protein (human (CCR8 part), mouse IgG2a Fc); assay: ELISA, plate coated with human CCR8 N-terminal domain-Fc fusion
human CCR8 [4] = biological target: T2, human CCR8; assay: FACS binning, Jurkat-huCCR8, 200 nM each; row = unlabeled 1st Ab; competitor (APC labeled 2nd Ab): Ch326
human CCR8 [5] = biological target: T2, human CCR8; assay: FACS binning, Jurkat-huCCR8, 200 nM each; row = unlabeled 1st Ab; competitor (APC labeled 2nd Ab): Ch211
human CCR8 [6] = biological target: T2, human CCR8; assay: FACS binning, Jurkat-huCCR8, 200 nM each; row = unlabeled 1st Ab; competitor (APC labeled 2nd Ab): Ch305
human CCR8 [7] = biological target: T2, human CCR8; assay: FACS binning, Jurkat-huCCR8, 200 nM each; row = unlabeled 1st Ab; competitor (APC labeled 2nd Ab): Ch127
human CCR8 [8] = biological target: T2, human CCR8; assay: FACS binning, Jurkat-huCCR8, 200 nM each; row = unlabeled 1st Ab; competitor (APC labeled 2nd Ab): 433H
human CCR8 [9] = biological target: T2, human CCR8; assay: FACS binning, Jurkat-huCCR8, 200 nM each; row = unlabeled 1st Ab; competitor (APC labeled 2nd Ab): 4A19
human CCR8 [10] = biological target: T2, human CCR8; assay: FACS binning, Jurkat-huCCR8, 200 nM each; row = unlabeled 1st Ab; competitor (APC labeled 2nd Ab): Ch366-2
[11] = biological target: T1, human CCR8 N-terminal domain-mouse Fc …; assay: ELISA, plate coated with human CCR8 N-terminal domain-Fc fusion
Experimental: To determine whether anti-CCR8 antibodies bind to the N-terminal domain of human CCR8, ELISA plates were coated with human CCR8 N-terminal domain-mouse Fc tag fusion protein (SEQ ID NO: 28 and 29) overnight at 4° C. After washing and blocking, serially diluted anti-CCR8 antibodies were added to plates and incubated for 1 hour at room temperature. After washing, diluted HRP goat anti-human IgG Fc or HRP goat anti-mouse kappa chain (for 433H) secondary antibodies were added to plates and incubated for 45 minutes at room temperature. After washing, TMB substrate was added to plates for developing and then stopped by adding TMB substrate stop solution. The absorbance was read at 450 nm using a plate reader. […] It is a non CCR8 N-terminal loop binder.

human CCR8 [12] = biological target: T2, human CCR8; assay: cell-based or functional assay
Cynomolgus Monkey CCR8 = biological target: T3, Cynomolgus Monkey CCR8 (cynomolgus monkey, UniProt O97665 1-356 (rhesus entry)); assay: flow cytometry, 293T-cynoCCR8 cells
T3 construct: also called cyno CCR8; cynoCCR8
T3 sequence (O97665 other isoform, or with tags, fused parts or gaps): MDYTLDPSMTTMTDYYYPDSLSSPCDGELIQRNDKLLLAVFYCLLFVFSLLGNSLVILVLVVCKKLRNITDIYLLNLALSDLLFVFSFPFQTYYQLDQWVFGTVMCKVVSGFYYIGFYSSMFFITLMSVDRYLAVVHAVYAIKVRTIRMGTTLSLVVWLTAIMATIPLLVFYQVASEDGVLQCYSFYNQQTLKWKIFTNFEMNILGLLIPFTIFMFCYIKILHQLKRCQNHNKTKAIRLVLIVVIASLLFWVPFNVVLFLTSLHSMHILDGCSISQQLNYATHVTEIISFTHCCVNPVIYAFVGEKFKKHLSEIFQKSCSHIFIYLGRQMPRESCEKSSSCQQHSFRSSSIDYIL
Experimental: Goat anti-human IgG was used as secondary antibody to detect antibody binding to the cell surface. EC50 values for dose-dependent binding to cyno CCR8 were determined by fitting the dose-response data to the four-parameter logistic model with GraphPad Prism.

human CCR8 [13] = biological target: T2, human CCR8; assay: flow cytometry, Jurkat/huCCR8 cells, Test1
Experimental: (§1) To evaluate the binding activities of anti-CCR8 antibodies to bind native CCR8 on live cells, Jurkat cells (ATCC TIB-15) were engineered to over-express human CCR8. Live Jurkat/huCCR8 cells were seeded in 96-well plate, and were incubated with a series of dilutions of anti-CCR8 antibodies. Alexa Fluor® 647 anti-Human IgG Fc Antibody (Biolegend cat: 410714) was used as a secondary antibody to detect antibody binding to CCR8 expressed on the cell surface. EC50 values for dose-dependent binding to human native CCR8 were determined by fitting the dose-response data to the four-parameter logistic model with GraphPad Prism.

human CCR8 [14] = biological target: T2, human CCR8; assay: cell-based or functional assay; remark: listed apart in the source
human CCR8 [15] = biological target: T2, human CCR8; assay: flow cytometry, Jurkat/huCCR8 cells, Test2
Experimental: as §1

Emax (human CCR8 [2])	IC50(nM), blocking activity (human CCR8 [12])	Imax(%), blocking activity (human CCR8 [12])	EC50 (Cynomolgus Monkey CCR8)	Emax (Cynomolgus Monkey CCR8)	EC50 (human CCR8 [13])	Emax (human CCR8 [13])	EC50 (human CCR8 [2])	EC50 (human CCR8 [15])	Emax (human CCR8 [15])	Molecule	EC50 (nM), NK cell mediated cytotoxicity (ADCC) on CCR8-expressing Treg (human CCR8 [14])	Emax (%), NK cell mediated cytotoxicity (ADCC) on CCR8-expressing Treg (human CCR8 [14])	also measured
60 RLU	–	–	–	–	–	–	–	–	–	hIgG (antibody)	–	–	Emax (human CCR8 [1]): 204 RFU
–	–	–	–	–	–	–	–	–	–	433H (antibody, from another filing, V domains shown) VH: EVQLVETGGGLVQPKGSLRLSCAASGFPFNTFAMNWVRQAPGKGLEWLARIRSKSNNYATYYADSVKDRFTISRDDSRRMLYLLMNNVKFEDTAIYYCVRGKENNYGYAMDYWGQGTSVTVSS VL: DIVMTQAAPSVPVTPGESVSISCRSSQSLLHSNGNTYLYWFLQRPGQSPQLLIYRMSNLASGVPDRFSGSGSGTAFTLRISRVEAEDVGVYYCMQHLEYPFTFGIGTKLELKR	–	–	EC50 [3]: 0.94 nM; % of the maximum binding of the APC labeled antibody (human CCR8 [4]): 1.87%; % of the maximum binding of the APC labeled antibody (human CCR8 [5]): 39.9%; % of the maximum binding of the APC labeled antibody (human CCR8 [6]): 28.9%; % of the maximum binding of the APC labeled antibody (human CCR8 [7]): 2.55%; % of the maximum binding of the APC labeled antibody (human CCR8 [8]): 3.03%; % of the maximum binding of the APC labeled antibody (human CCR8 [9]): 8.43%; % of the maximum binding of the APC labeled antibody (human CCR8 [10]): 14.2%
–	–	–	–	–	–	–	–	–	–	4A19 (antibody, V domains shown) VH: QVQLVQSGAEVKKPGASVKVSCKASGYTFTDSEMHWVRQATGQGLEWMGAIQPETGGTAYNQKFKARVTMTRDTSISTAYMELSSLRSEDTAVYYCARRRRNFDYWGQGTLVTVSS VL: DIVMTQTPLSLSVTPGQPASISCRSSQSLFHSSGNTYLHWYLQKPGQPPQLLIYKVSNRFSGVPDRFSGSGSGTDFTLKISRVEAEDVGVYYCSQSTHVPFTFGQGTKLEIKR	–	–	EC50 [11]: 0.11 nM
1750 RLU	1.84 nM	87.8%	14.8 nM	11900 RLU	3.88 nM	25200 MFI	90.7 nM	4.75 nM	16600 MFI	Ch305-AF (antibody, V domains shown, human IgG1/kappa; also called afucosylated Ch305) VH: QVQMKQSGPSLVQPSQSLSITCTVSGFSLTSYGVHWVRQSPGKGLEWLGVIWRGGTTDYNAAFMSRLSFTKDSSKSQVFFKLNSLQADDTAIYYCAKNRVTTVVAPNFYAMDYWGQGTSVTVSS VL: DIVMTQSPSSLAVSVGEKVTMSCKSSQSLLYSGNQKNYLAWYQQKPGQSPKLLIYWASTRKSGVPDRLTGSGSGTDFTLTISSVKAEDLAAYYCQQYYTYPLTFGAGTRLEIK	0.064 nM	75.1%	–
2030 RLU	1.82 nM	87.3%	12.5 nM	12400 RLU	–	–	47.6 nM	2.98 nM	16700 MFI	hu305-5W-3a-AF (antibody, V domains shown, also called afucosylated hu305-5W-3a) VH: QVQLKQSGPGLVKPSETLSLTCTVSGFSLAVYGVHWVRQPPGKGLEWLGVIWRGGTTDYNPSLKSRLTFSKDSSKSQVSLKLSSVTAADTAVYYCAKNRVTTVVAPNFYAMDYWGQGTLVTVSS VL: DIVMTQSPDSLAVSLGERATINCKSSQSLLYSGNQKNYLAWYQQKPGQPPKLLIYWASTRKSGVPDRFSGSGSGTDFTLTISSLKAEDVAVYYCQQYYTYPLTFGQGTRLEIK	0.059 nM	75.5%	–
1860 RLU	13.1 nM	75.6%	16.6 nM	12300 RLU	5.83 nM	22900 MFI	136 nM	–	–	hu305-4F-2m-AF (antibody, V domains shown) VH: QVQLQESGPGLVKPSQTLSLTCTVSGFSLAVYGVHWVRQPPGKGLEWLGVIWRGGTTDYNPSLKSRLTFSKDSSKSQVSLKLSSVTAADTAVYYCAKNRVTTVVAPNFYAMDYWGQGTLVTVSS VL: DIVMTQSPDSLAVSLGERVTINCKSSQSLLYSGNQKNYLAWYQQKPGQSPKLLIYWASTRKSGVPDRFSGSGSGTDFTLTISSLQAEDVAAYYCQQYYTYPLTFGQGTRLEIK	0.585 nM	70.9%	–
1760 RLU	6.19 nM	78%	16.7 nM	12500 RLU	6.01 nM	23500 MFI	117 nM	–	–	hu305-4F-2l-AF (antibody, V domains shown, also called hu305-4F-21-AF; hu305-4F-21) VH: QVQLQESGPGLVKPSQTLSLTCTVSGFSLAVYGVHWVRQPPGKGLEWLGVIWRGGTTDYNPSLKSRLTFSKDSSKSQVSLKLSSVTAADTAVYYCAKNRVTTVVAPNFYAMDYWGQGTLVTVSS VL: DIVMTQSPDSLAVSLGERVTMNCKSSQSLLYSGNQKNYLAWYQQKPGQSPKLLIYWASTRKSGVPDRFSGSGSGTDFTLTISSLQAEDVAAYYCQQYYTYPLTFGQGTRLEIK	0.396 nM	72.3%	–
1720 RLU	10.5 nM	77.1%	9.83 nM	12600 RLU	–	–	35.2 nM	2.99 nM	17500 MFI	hu305-5P-3a-AF (antibody, V domains shown) VH: QVQLKQSGPGLVKPSETLSLTCTVSGFSLTSYGVHWVRQPPGKGLEWLGVIWRGGTTDYNPSLKSRVTFSKDSSKNQVSLKLSSVTAADTAVYYCAKNRVTTVVAPNFYAMDYWGQGTLVTVSS VL: DIVMTQSPDSLAVSLGERATINCKSSQSLLYSGNQKNYLAWYQQKPGQPPKLLIYWASTRKSGVPDRFSGSGSGTDFTLTISSLKAEDVAVYYCQQYYTYPLTFGQGTRLEIK	0.077 nM	73.7%	–
